Target: Hsp90α in MCF-7 cells (Thr90 phosphorylated, intracellular) (human)
Test: cell-based or functional assay

Question: How did the Thr90 phosphorylated Hsp90α level in MCF-7 cells on overexpression of human PP5 (of the control) turn out when “human PP5 in MCF-7 cells (overexpressed from pcDNA3.1/Myc-His(-), or the endogenous protein knocked down by siRNA) (enzyme)” was run?
Answer: 0.55

Question: And the Thr90 phosphorylated Hsp90α level in MCF-7 cells on siRNA knock-down of human PP5 (of the control)?
Answer: 1.58

— EP2452948B1
